Measured values published in the supplement of paper PMC10567573.
± gives the standard deviation.

Assay: protein stability index of a GFP-peptide fusion (GPS, HEK-293T) (PSI 1-6); higher = more stable
Conditions: c terminus: a fixed tail appended
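Note: 24-mer peptide tiles fused after GFP, lentivirally expressed, FACS-sorted into six equal bins by GFP/DsRed ratio, decoded by Illumina sequencing, PSI is the read-weighted mean bin number.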

Sequence | protein stability index (treatment: DMSO) | protein stability index (treatment: MLN4924 1 uM, 8 h)
LSWYRGRRPRTAFTQNQIEVLENV [HESX1] | 3.03 ± 0.094 | 3 ± 0.28
IHKGEKPYQCSQCSKSYSRRSFLI [ZSCAN9] | 2.46 ± 0.75 | 2.12 ± 0.42
CIYSEVMEALDLQPGLSFLNLGSG [PCMTD2] | 2.29 ± 0.34 | 2.33 ± 0.44
REHCPENRERVVSLIEDLQRELEI [ZNF449] | 3.91 ± 0.21 | 4 ± 0.28
LKKIKEKDKENKFLCVLMSDWFNF [CLK3] | 2.14 ± 0.36 | 2.24 ± 0.24
MQKRSKAIHSSDEDEDEDDEEDFE [WASL] | 4.58 ± 0.23 | 4.69 ± 0.21
LDRFLSLEPVKKSRLQLLGATCMF [CCND1] | 2.42 ± 0.36 | 2.39 ± 0.14
VHQRGSSTAKKEDINLSVRKLLNR [TRIP13] | 3.72 ± 0.31 | 3.87 ± 0.25
ALLPSLSHCSQLTTLSFYGNSISI [PRAME] | 3.14 ± 0.66 | 3.14 ± 0.35
IDKGDIPDLTQAPSSLMETLEQHL [SNAP91] | 4.11 ± 0.22 | 4.08 ± 0.33
RSPIIDVKNDRDRVGHKSIPMRNL [SERPINB5] | 3.83 ± 0.13 | 4 ± 0.36
PGPHSAKQDSYEQGDSSQQSLKGH [ZC2HC1C] | 5.24 ± 0.28 | 5.52 ± 0.082
PSDFFIGAVIEVFGHRFIILDTDE [EFHC1] | 2.32 ± 0.43 | 2.31 ± 0.36
LGRMFGSGREHNFTRPNEKGEYEV [BTBD10] | 3.95 ± 0.08 | 3.98 ± 0.25
SSDGSNFGWETKIKAWMDRYEEAN [KMT2E] | 3.79 ± 0.18 | 3.83 ± 0.15
APSKKAAKDPGKGELPNHPKPAGG [FBF1] | 5.1 ± 0.43 | 5.53 ± 0.24
LGQIVLLPAEARERSRGRSISRGR [MATN2] | 3.86 ± 0.45 | 4.21 ± 0.18

Sequence | protein stability index (treatment: DMSO) | protein stability index (treatment: MLN4924 1 uM, 8 h)
RQNLSKSWLDVQVSNTYVKQKTSA [TPD52L3] | 3.83 ± 0.28 | 3.8 ± 0.25
PGEKSHWGEGLHQLREALKILAER [EMID1] | – | 2.13 ± 0.33
RREEEERRRIEEERLRLEQQKQQI [ACBD3] | 5.35 ± 0.19 | 5.05 ± 0.41
PVPPPSYFATFYSCTPRMNRRMVG [FAM189A2] | 2.43 ± 0.28 | 2.43 ± 0.33
SRVILEIDNARLAADDFRLKYENE [KRT15] | 3.62 ± 0.4 | 3.7 ± 0.15
TCECLEGFRLAEDGKRCRRKDVCK [MATN2] | 4.24 ± 0.25 | 4.83 ± 0.28
TLDGRTPLHLAAQRGHYRVARILI [RIPK4] | 1.97 ± 0.44 | 1.92 ± 0.36
MRNLKASLENSLREVEARYALQME [KRT18] | 3.22 ± 0.12 | 3.25 ± 0.38
KENQDIRLLQAQLQAQKEELQSLM [PBXIP1] | 4.05 ± 0.12 | 4.14 ± 0.22
ICLMCVHSLERAGSKQYSAAIAFT [SMG5] | 2.58 ± 0.33 | 2.42 ± 0.78
VKELGTVMRMLGQTPTKEELDAII [TNNC2] | 3.02 ± 0.29 | 3.04 ± 0.94
TYEKLSRAMRYYYKREILERVDGR [ELF3] | 2.21 ± 0.4 | 2.26 ± 0.37
TLGQAWQGYVSDIRRFLSAFHEPQ [DFFB] | 2.29 ± 0.18 | 2.04 ± 0.22
SRLVKYPLLLKEILKHTPKEHPDV [NET1] | 2.71 ± 0.18 | 2.92 ± 0.32
FYQHLLLYIQSHYQLELQCCIDWT [SMG5] | 3.17 ± 0.36 | 3.02 ± 0.38
DQRNPAKESLETPSNGRIDIKQLI [SOAT1] | 4.13 ± 0.26 | 4.24 ± 0.23
